In experiment [1] the target is p12026-BSA-conjugate (human). Kind of experiment: ELISA, plate coated with p12026-BSA-conjugate 4 µg/ml; serum dilution 1:3200. (In general: An ELISA detects its analyte on a solid surface through an enzyme-linked reagent.)
Experiment [2] has as its target p12026-BSA-conjugate (human). The experiment in a line: ELISA, plate coated with p12026-BSA-conjugate 4 µg/ml; serum dilution 1:400.
The target in experiment [3] is p12026-BSA-conjugate (human). The experiment in a line: ELISA, plate coated with p12026-BSA-conjugate 4 µg/ml; serum dilution 1:12800.
Experiment [4] has as its target p12026-BSA-conjugate (human). Kind of experiment: ELISA, plate coated with p12026-BSA-conjugate 4 µg/ml; serum dilution 1:200.
Experiment [5] deals with p12026-BSA-conjugate (human). Kind of experiment: ELISA, plate coated with p12026-BSA-conjugate 4 µg/ml; serum dilution 1:800.
The target in experiment [6] is p12026-BSA-conjugate (human). The experiment in a line: ELISA, plate coated with p12026-BSA-conjugate 4 µg/ml; serum dilution 1:6400.
For experiment [7], the target named is p12026-BSA-conjugate (human). Kind of experiment: ELISA, plate coated with p12026-BSA-conjugate 4 µg/ml; serum dilution 1:100.
The target in experiment [8] is p12026-BSA-conjugate (human). The experiment in a line: ELISA, plate coated with p12026-BSA-conjugate 4 µg/ml; serum dilution 1:1600.
Another experiment addresses NTSR1 (UniProt P30989). The experiment in a line: cell-based or functional assay.

Sequence of p12026-BSA-conjugate (human) (P02769 25-607 limits assumed): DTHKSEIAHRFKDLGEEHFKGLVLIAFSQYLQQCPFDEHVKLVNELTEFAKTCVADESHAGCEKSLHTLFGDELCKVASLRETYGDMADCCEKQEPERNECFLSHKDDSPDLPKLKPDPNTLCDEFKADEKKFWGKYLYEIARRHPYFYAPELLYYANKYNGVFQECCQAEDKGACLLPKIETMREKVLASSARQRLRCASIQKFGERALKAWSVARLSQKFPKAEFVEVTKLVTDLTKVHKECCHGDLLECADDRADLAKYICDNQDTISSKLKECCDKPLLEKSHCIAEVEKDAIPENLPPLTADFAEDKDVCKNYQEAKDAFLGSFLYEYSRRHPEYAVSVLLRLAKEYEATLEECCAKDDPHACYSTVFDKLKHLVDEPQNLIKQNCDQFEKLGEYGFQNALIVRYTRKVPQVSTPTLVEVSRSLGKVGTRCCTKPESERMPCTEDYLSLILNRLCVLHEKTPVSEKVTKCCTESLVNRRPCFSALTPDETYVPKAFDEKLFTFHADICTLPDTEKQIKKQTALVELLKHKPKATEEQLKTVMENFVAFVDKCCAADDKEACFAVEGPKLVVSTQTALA
Sequence of NTSR1 (P30989 whole entry): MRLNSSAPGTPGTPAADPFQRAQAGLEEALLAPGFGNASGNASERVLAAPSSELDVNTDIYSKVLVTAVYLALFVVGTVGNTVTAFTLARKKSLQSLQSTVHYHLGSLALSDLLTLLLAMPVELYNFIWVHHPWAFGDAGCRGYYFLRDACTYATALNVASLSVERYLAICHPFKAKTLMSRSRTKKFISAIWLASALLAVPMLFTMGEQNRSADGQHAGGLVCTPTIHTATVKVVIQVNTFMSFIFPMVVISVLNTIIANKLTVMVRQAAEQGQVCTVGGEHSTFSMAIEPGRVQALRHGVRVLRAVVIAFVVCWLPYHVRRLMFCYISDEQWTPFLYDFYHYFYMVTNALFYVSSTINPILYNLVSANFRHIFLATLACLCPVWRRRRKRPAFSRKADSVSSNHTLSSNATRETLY

For the substance normal serum (antibody), the OD405nm amounted to 0.01 OD405nm in experiment [1]; 0.016 OD405nm in experiment [2]; 0.004 OD405nm in experiment [3]; 0.016 OD405nm in experiment [4]; 0.012 OD405nm in experiment [5]; 0.009 OD405nm in experiment [6]. The OD405nm stood at 0.032 OD405nm in experiment [7] and 0.008 OD405nm in experiment [8].

In turn, “NTS released or expressed by cancer cells (from UniProt P30990 24-163) (ligand)” yielded a reduction of cell growth of CHO NTSR1 overexpressing cells with NTSR1 of 60%.

Source of the values: US20170218057A1.
